Where a chain is given by its changes, count along the chain named. Names may count otherwise.
T1: human gamma common chain expressed on CHO cells (human, UniProt P31785 23-369)
T1 construct: whole, on cells; Control protein; also called human IL-2R-γ common subunit; human gamma (γ) common chain
T1 sequence (looked up): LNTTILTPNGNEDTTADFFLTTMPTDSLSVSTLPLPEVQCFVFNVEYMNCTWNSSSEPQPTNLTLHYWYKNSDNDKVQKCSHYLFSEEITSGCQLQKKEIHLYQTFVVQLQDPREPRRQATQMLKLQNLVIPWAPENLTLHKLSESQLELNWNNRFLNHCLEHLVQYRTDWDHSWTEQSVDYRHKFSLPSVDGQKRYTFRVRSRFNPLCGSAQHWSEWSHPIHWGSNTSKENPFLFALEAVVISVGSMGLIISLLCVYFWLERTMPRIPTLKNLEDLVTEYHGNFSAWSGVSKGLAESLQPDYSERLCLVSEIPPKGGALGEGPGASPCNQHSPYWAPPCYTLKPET

T2: human IL-2Rβ (human, UniProt P14784 27-239)
T2 construct: Bought
T2 sequence (looked up): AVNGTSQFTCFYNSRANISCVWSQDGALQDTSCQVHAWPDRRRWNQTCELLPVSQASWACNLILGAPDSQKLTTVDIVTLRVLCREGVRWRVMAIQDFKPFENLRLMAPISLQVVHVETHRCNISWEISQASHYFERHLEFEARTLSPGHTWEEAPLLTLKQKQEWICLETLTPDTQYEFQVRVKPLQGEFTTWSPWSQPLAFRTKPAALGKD

B1: parental 18A5 antibody (antibody, V domains shown)
VH: QVQLQESGPGLVKTSETLSLTCAVSGYSISSGYYWGWIRQPPGKGLEWIGSISHTGNTYYNPPLKSRVTISVDTSKNQFSLKLSSVTAADTAVYYCARGGGISRPEYWGKGTLVTVSS
VL: SSELTQDPPVSVALGQTVTLTCQGDSLRTYYASWYQQKSGQAPILLLYGKHKRPSGIPDRFSGSTSGDTASLTITGAQAEDEADYYCNSRDSSGNPHVLFGGGTQLTVL
B2: AbS (antibody, human IgG1, V domains shown)
VH: B1 VH with T14P, K110Q
VL: SSELTQDPAVSVALGQTVRITCQGDSLRTYYASWYQQKPGQAPVLVIYGKHKRPSGIPDRFSGSSSGNTASLTITGAQAEDEADYYCMSRSIWGNPHVLFGGGTQLTVL
notes: Human IgG1 triple-mutant (L234A, L235A, G237A); Framework limits derived; also called VHP/VL6; VHPTM/VL6
B3: AbR (antibody, human IgG1, V domains shown)
VH: B1 VH with T14P, G99F, G100M, I102F, S103G, K110Q
VL: B2 VL with M88V, S89T, I92V, W93K
notes: Purified form: human IgG1 double-mutant (L234A, G237A); Framework limits derived; also called VH3/VL18; VH3DM/VL18
B4: AbT (antibody, human IgG1, V domains shown)
VH: B1 VH with T14P, K110Q
VL: B2 VL with M88V, S89A, I92N, W93K
notes: Human IgG1 triple-mutant (L234A, L235A, G237A); Framework limits derived; also called VHP/VL9; VHPTM/VL9
B5: AbP (antibody, human IgG1, V domains shown)
VH: B1 VH with T14P, K110Q
VL: B2 VL with M88V, I92A, W93K
notes: Human IgG1 triple-mutant (L234A, L235A, G237A); Framework limits derived; also called VHP/VL20; VHPTM/VL20

Target: T3, murine IL-21R expressed on cells (murine, UniProt Q9JHX3 20-529)
T3 sequence (Q9JHX3 20-529 limits assumed): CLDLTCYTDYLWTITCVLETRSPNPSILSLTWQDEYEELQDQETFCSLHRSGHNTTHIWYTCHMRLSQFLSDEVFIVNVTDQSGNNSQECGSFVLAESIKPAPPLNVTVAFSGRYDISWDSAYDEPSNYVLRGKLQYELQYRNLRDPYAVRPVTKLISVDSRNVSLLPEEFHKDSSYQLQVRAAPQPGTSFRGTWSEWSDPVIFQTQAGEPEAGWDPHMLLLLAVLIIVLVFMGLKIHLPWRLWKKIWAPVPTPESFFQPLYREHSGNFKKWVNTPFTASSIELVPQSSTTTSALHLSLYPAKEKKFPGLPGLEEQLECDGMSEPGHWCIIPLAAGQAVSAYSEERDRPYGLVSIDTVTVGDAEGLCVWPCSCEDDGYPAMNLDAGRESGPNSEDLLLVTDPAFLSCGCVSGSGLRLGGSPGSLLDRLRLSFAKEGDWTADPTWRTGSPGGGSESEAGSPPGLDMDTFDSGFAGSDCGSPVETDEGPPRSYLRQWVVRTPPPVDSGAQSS
Experiment: cell-based or functional assay

Binder	Neutralization of T cell Proliferation IC50 (nM), murine primary CD8+ T cells [nM]
B1	> 85
B2	0.02
B3	0.13
B4	0.61

Target: rat IL-21R expressed on cells (rat)
Experiment: cell-based or functional assay

Binder	IC50 (nM) experiment 1, rat T cell proliferation [nM]	IC50 (nM) experiment 2, rat T cell proliferation [nM]
B2	36	27.1

Target: T4, human IL-21R expressed on cells (human, UniProt Q9HBE5 20-538)
T4 sequence (Q9HBE5 20-538 limits assumed): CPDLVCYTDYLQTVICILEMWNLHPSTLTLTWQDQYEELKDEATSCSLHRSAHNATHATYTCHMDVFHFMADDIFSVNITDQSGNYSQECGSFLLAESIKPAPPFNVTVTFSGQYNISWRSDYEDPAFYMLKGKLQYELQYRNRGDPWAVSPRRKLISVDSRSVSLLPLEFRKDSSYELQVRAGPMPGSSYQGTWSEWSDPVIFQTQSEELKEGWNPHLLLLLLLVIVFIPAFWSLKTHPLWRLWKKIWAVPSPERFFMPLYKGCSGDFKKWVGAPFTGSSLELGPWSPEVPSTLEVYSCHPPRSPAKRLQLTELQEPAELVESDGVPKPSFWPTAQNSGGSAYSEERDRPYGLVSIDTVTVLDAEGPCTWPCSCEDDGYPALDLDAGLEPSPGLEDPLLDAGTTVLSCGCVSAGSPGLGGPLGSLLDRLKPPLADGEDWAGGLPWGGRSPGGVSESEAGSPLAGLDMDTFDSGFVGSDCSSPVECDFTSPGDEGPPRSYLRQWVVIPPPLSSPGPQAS
Experiment: cell-based or functional assay

Binder	Neutralization of B cell proliferation IC50 [nM]
B1	1.86
B2	0.44
B3	0.22
B4	0.14

Target: T4, human IL-21R expressed on cells
Experiment: cell-based or functional assay
Remark: another data set of the same source

Binder	Human IL-21R-BaF3 Neutralization IC50 [nM]	Human IL-21R-TF1 Neutralization IC50 [nM]
B1	1.71	14
B2	0.68	6.67
B3	0.56	1.63
B4	0.3	2.32

Target: T3, murine IL-21R expressed on cells
Experiment: cell-based or functional assay
Remark: another data set of the same source

Binder	Murine IL-21R-BaF3 Neutralization IC50 [nM]
B1	177
B2	0.04
B3	0.34
B4	0.05

Target: T4, human IL-21R expressed on cells
Experiment: cell-based or functional assay
Remark: another data set of the same source

Binder	Human IL-21R-BaF3 Proliferation IC50 [nM]	Human IL-21R-TF1 Proliferation IC50 [nM]
B5	0.75	3.48
B2	1.53	5
B3	0.87	3.94
B4	0.67	3.26

Target: T3, murine IL-21R expressed on cells
Experiment: cell-based or functional assay
Remark: another data set of the same source

Binder	Murine IL-21R-BaF3 Proliferation IC50 [nM]
B5	0.03
B2	0.04
B3	0.302
B4	0.093

Target: T5, rat IL-21R expressed on cells (rat)
T5 construct: whole, on cells; Transiently transfected CHO-PA-Dukx cells
Experiment: cell ELISA on transfected CHO cells, 13 nM IgG
Experimental: (§1) A subset of binding proteins was tested for binding to rat, cynomolgus monkey, human IL-21R, or human IL-2R-γ common subunit expressed transiently on the surfaces of CHO-PA-Dukx cells. Cells were transfected 48 hr prior to the assay. On the day of the assay, cells were washed gently 5× in PBS containing 0.9 mM CaCl₂ and 0.45 mM MgCl₂ (PBS/CaMg) on an automated plate washer (Titertek, Huntsville, Ala.), and blocked for 1 hr at RT in PBS/CaMg/5% nonfat dry milk. Conditioned media from transiently expressed anti-IL-21R IgGs were serially diluted in blocking buffer and added to the cells in the blocked plates for 1 hr at RT. Cells were washed 5× with PBS/CaMg and then incubated with horseradish peroxidase-conjugated anti-human IgG for 1 hr at RT. Cells were then washed 10× in PBS/CaMg and all of the wash buffer was removed. Cells were incubated with 100 μl TMB until the color reaction reached saturation, stopped with 100 μl of 0.18 M H₂SO₄, and read at A450 on a Perkin Elmer ENVISION™ plate reader.

Binder	A450 at 13 nM Ab in cell ELISA [A450]
B5	1.03
B2	1.17
B3	1.11
B4	0.994

Target: T1, human gamma common chain expressed on …
Experiment: cell ELISA on transfected CHO cells, 13 nM IgG
Experimental: as §1

Binder	A450 at 13 nM Ab in cell ELISA [A450]
B5	0.112
B2	0.118
B3	0.109
B4	0.102

Target: T6, cynomolgus monkey IL-21R expressed on CHO cells (cynomolgus monkey)
T6 construct: whole, on cells
Experiment: cell ELISA on transfected CHO cells, 13 nM IgG
Experimental: as §1

Binder	A450 at 13 nM Ab in cell ELISA [A450]
B5	1.31
B2	1.22
B3	1.35
B4	1.22

Target: T4, human IL-21R expressed on cells
Experiment: cell ELISA on transfected CHO cells, 13 nM IgG
Experimental: as §1

Binder	A450 at 13 nM Ab in cell ELISA [A450]
B5	1.31
B2	1.02
B3	1.33
B4	1.08

Target: T4, human IL-21R expressed on cells
Experiment: cell-based or functional assay
Remark: another data set of the same source

Binder	Neutralization of T cell Proliferation IC50 (nM), human primary CD4+ T cells [nM]
B5	0.02
B1	1.42
B2	0.06
B3	0.04
B4	0.03

Target: T2, human IL-2Rβ
Experiment: BIACORE: antibody captured on anti-human IgG, 50 nM analyte injected
Experimental: (§2) The specificity of binding of a subset of transiently expressed anti-IL-21R binding proteins (here antibodies) was tested on a BIACORE™ 2000 surface plasmon resonance instrument. Anti-human-IgG, anti-murine immunoglobulin antibodies, and murine IL-21R-H/F were immobilized onto a research-grade carboxymethyl-dextran chip (CM5) using standard amine coupling. The sensor chip surface was activated with EDC/NHS for 7 min at a flow rate of 20 μl/min. The first flow cell was used as reference surface to correct for bulk refractive index, matrix effects, and nonspecific binding. […] Remaining activated groups were blocked with 1.0 M ethanolamine (pH 8.0). The molecular weights of the anti-human IgG and the anti-murine IgG were both 150 kD, and the molecular weight of the IL-21R monomer was 27 kD.
(§3) Conditioned media containing anti-IL-21R antibodies and antibody controls (murine anti-human IL-2Rβ and murine anti-human IL-4R(R&D Systems, Minneapolis, Minn.); human anti-human IL-13 (Wyeth, Cambridge, Mass.)) were diluted in HBS/EP buffer supplemented with 0.2% bovine serum and injected onto all four flow cells of the BIACORE™ chip, capturing 500-700 (RU) of antibody on the species-appropriate capture antibody. Following a 5 sec washing period, 50 nM solutions of a positive control protein (murine IL-21R-H/F), two human proteins related to IL-21R (human IL-2Rβ and human sIL-4R(R&D Systems)), or an unrelated His/FLAG-tagged protein (human IL-13-H/F), were injected over the captured antibodies on the chip. The association and dissociation phases were monitored for 120 and 180 sec, respectively, followed by two 5 μl injections of glycine (pH 1.5) to regenerate a fully active capturing surface. All binding experiments were done at 25° C. in HBS/EP buffer. Blank and buffer effects were subtracted for each sensorgram using double referencing.

Binder	binding result
B5	no binding (tested: 50 nM)
B2	no binding (tested: 50 nM)
B3	no binding (tested: 50 nM)
B4	no binding (tested: 50 nM)

Target: T7, human IL-13-His/FLAG (human, UniProt P35225 35-146, limits assumed)
T7 construct: Unrelated His/FLAG-tagged control; also called human IL-13-H/F
T7 sequence (P35225 35-146 limits assumed): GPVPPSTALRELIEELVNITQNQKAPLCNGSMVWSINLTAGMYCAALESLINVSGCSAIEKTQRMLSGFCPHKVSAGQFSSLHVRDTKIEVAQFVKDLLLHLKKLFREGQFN
Experiment: as above
Experimental: as §2, §3

Binder	binding result
B5	no binding (tested: 50 nM)
B2	no binding (tested: 50 nM)
B3	no binding (tested: 50 nM)
B4	no binding (tested: 50 nM)

Target: T8, human soluble IL-4R (human, UniProt P24394 26-231, limits assumed)
T8 construct: soluble; also called human sIL-4R
T8 sequence (P24394 26-231 limits assumed): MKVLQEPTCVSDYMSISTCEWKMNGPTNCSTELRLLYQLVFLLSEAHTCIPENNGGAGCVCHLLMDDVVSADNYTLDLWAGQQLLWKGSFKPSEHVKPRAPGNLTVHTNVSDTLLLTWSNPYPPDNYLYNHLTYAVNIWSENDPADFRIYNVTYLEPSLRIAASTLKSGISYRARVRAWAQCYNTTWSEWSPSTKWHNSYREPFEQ
Experiment: as above
Experimental: as §2, §3

Binder	binding result
B5	no binding (tested: 50 nM)
B2	no binding (tested: 50 nM)
B3	no binding (tested: 50 nM)
B4	no binding (tested: 50 nM)

Source: patent US20090298167A1 (Pfizer, published 2009)
